Results as given in paper PMC11260479, “YY1 is involved in homologous recombination inhibition at guanine quadruplex sites in human cells”.

Target: RAD51 (UniProt Q06609 1-339)
Experiment: EMSA; 2 mM ATP, 5 mM CaCl2; EMSA, 10 nM DNA. RAD51: 20 mM Tris-HCl pH 8.0, 30 mM NaCl, 1 mM DTT, 2 mM ATP, 5 mM CaCl2, 0.2% Tween 20, 37 C 15 min. BG4: 20 mM Tris-HCl pH 8.0, 30 mM KCl, 1
Settings: protein: commercial; chain copies: 10; label: none (SYBR Gold stain); single strand

Chain of RAD51 (Q06609 whole entry): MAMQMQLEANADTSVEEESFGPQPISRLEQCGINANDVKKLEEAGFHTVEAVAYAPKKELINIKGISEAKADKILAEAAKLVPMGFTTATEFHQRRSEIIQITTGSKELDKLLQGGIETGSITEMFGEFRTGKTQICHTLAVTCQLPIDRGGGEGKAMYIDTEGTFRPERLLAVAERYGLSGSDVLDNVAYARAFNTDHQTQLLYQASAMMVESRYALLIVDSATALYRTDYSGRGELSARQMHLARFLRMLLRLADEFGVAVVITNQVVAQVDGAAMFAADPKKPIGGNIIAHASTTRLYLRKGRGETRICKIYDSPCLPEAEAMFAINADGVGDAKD

B1: ss-DNA (ssDNA)
DNA: ATGGTGTGTGTAGGTTAATGTGAGGAGGAGAGGTGAAGAAGGAGGAGAGAAGAAGGAGGC
binding result: binds
